Measured values published in the supplement of paper PMC11908140.

B1: library; numbered along this chain (parent)
chain: MRKPRAAVGSGHRKQAASQEGRQKHAKNNSQAKPSACDGLARQPEEVVLQASVSSYHLFRDVAEVTAFRGSLLSWYDQEKRDLPWRRRAEDEMDLDRRAYAVWVSEVMLQQTQVATVINYYTGWMQKWPTLQDLASASLEEVNQLWAGLGYYSRGRRLQEGARKVVEELGGHMPRTAETLQQLLPGVGRYTAGAIASIAFGQATGVVDGNVARVLCRVRAIGADPSSTLVSQQLWGLAQQLVDPARPGDFNQAAMELGATVCTPQRPLCSQCPVESLCRARQRVEQEQLLASGSLSGSPDVEECAPNTGQCHLCLPPSEPWDQTLGVVNFPRKASRKPPREESSATCVLEQPGALGAQILLVQRPNSGLLAGLWEFPSVTWEPSEQLQRKALLQELQRWAGPLPATHLRHLGEVVHTFSHIKLTYQVYGLALEGQTPVTTVPPGARWLTQEEFHTAAVSTAMKKVFRVYQGQQPGTCMGSKRSQVSSPCSRKKPRMGQQVLDNFFRSHISTDAHSLNSAAQ

Variants of: B1
Assay: 8OG:A repair function score (normalized; synonymous = 0, nonsense = -1) (normalized log-likelihood score); higher = more repair activity (WT-like)
Conditions: with 8OG:A DNA repair reporter (GFP) in HEK-293 MUTYH KO cells
Procedure, shortened: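 GFP+ (repair) and GFP− bins of viable mCherry+ cells were collected at 72 h from MUTYH knockout HEK-293 cells bearing lentiviral MUTYH cDNA NNN codon-scan libraries in 10 pg/ml doxycycline, co-transfected with an 8OG:A GFP repair reporter and mCherry. Tile amplicons were sequenced, and per-tile Rosace fitness scores were normalized to a repair function score anchored on synonymous and nonsense distributions. Synonymous medians were set to 0 and nonsense to -1, with variants under 300 counts per million at the start removed.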
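Further: cells sorted at 72 h after reporter transfection.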

Variant | 8OG:A repair function score
G123M | -0.101
T455K | -0.247
A345V | 0.0157
A345R | -0.408
A345K | -0.499
Q499A | -0.02
S276D | 0.00885
A67K | -0.0225
R156H | -0.0809
Q351V | 0.000574
E382S | 0.000352
H312F | -0.000263
D224N | -0.918
H420N | -0.608
H420V | -0.371
C262D | -1.2
C262L | -1.26
S483R | 0.0251
H172N | -0.0786
H172S | 0.0204
L109V | -0.838
Q426F | -0.17
Q426R | -0.143
S138M | -0.0953

Variant | 8OG:A repair function score
Q288F | -0.016
N143I | -0.0751
Q310L | -0.0215
C347W | -1.21
Q470T | -0.0526
Q470V | -0.00474
Q50Y | -0.0626
Q50I | -0.135
A445F | -0.672
K333C | 0.053
E302W | -0.215
E302Y | -0.246
E302N | -0.316
N210Q | -0.95
G150K | -1.27
G150V | -1.22
V62A | -0.00201
V62T | 0.00595
G401Q | -0.521
W85T | -1.61
W85P | -1.05
M93H | -0.01
L349F | -0.112
Q498G | 0.0187

Variant | 8OG:A repair function score
Q498A | 0.011
Q498M | -0.0277
N503A | 0.0125
S71R | -0.0148
T511F | -0.00618
T511D | -0.0938
T449N | -0.203
T449H | -0.131
L234A | -0.833
Y56V | -0.015
Y56E | -0.0123
G434S | -0.0544
R42G | 0.0112
R42C | 0.0324
L361W | -0.755
L241T | -0.51
G209C | 0.162
G39C | -0.0254
P331W | -0.233
D82P | -0.00741
D82L | -0.0723
K337M | -0.112
K337I | -0.106
L392V | -0.289

Variant | 8OG:A repair function score
L392S | -1.04
E178C | -0.0388
T424S | -0.192
G444N | -0.198
I198K | -1.06
I198M | -0.189
I195A | -0.996
R495K | 0.00711
R495E | 0.0282
R495Q | -0.0181
R495G | -0.0152
V53R | 0.00694
V53Y | -0.0142
V348E | -0.925
R283K | -0.0478
R283C | -0.167
V362A | -0.284
P306C | -0.044
P306F | -0.0382
K492N | -0.00159
T122V | -0.0114
E141R | -0.449
R217W | -0.993
V284C | -0.0207

Variant | 8OG:A repair function score
G70D | -0.369
R279S | -0.377
L83M | -0.533
G293S | -0.0376
G293T | -0.0505
Q202V | -0.0323
R336P | -0.136
Q111M | -1.12
A513V | -0.0254
P267I | -0.711
V242N | -0.576
V465P | -1.18
G161E | -0.898
A405M | -0.161
A405L | -0.177
N517Y | -0.0106
D243T | -0.727
L145C | 0.112
G236S | 0.254
G236Q | 0.356
E319T | 0.123
Q78R | 0.00285
L277T | -0.115
L277H | -0.0518

Variant | 8OG:A repair function score
L215R | -1.02
S318W | 0.126
I421R | -0.207
I421K | -0.173
E303G | -0.0952
Q159C | 0.0194
F418N | -0.355
F418T | -0.165
E385W | 0.109
K164H | -0.186
K164T | -0.103
A457Y | -0.48
A457M | -0.585
Q43C | 0.138
V379L | -0.463
V379Q | -0.792
T417A | 0.198
R506A | -0.0637
P174A | -0.706
V214L | -0.0688
G222H | -0.56
Q521M | 0.0277
Q271H | -0.0231
Q271P | -0.311

Variant | 8OG:A repair function score
G353C | -0.0857
T116Q | -0.21
G188N | -0.923
G188C | -0.839
R398F | 0.214
A461P | -0.267
A461M | -0.276
S153P | 0.0253
N329H | -0.276
S296K | -0.0357
L134G | -0.824
P404Q | 0.15
S136R | 0.0299
T439P | 0.126
R2Y | -0.155
A238S | -0.0308
F504Q | -0.00826
F504T | 0.0122
P352G | -0.0543
D502Y | -0.0488
E64Q | 0.00334
E451V | -0.135
K464T | -0.351
